This series in a line: protein stability index of a GFP-peptide fusion (yeast GPS) (PSI 1-4); higher = more stable; sorted into four equal gates, so the index is relative within each strain. In outline:
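The protein stability index combines read frequencies across sorting gates, each weighted by its gate number and then summed. To obtain those frequencies, a pooled yeast library of GFP fusions to tiled 17-residue yeast protein peptides, on a plasmid also expressing Cherry, was grown to mid-log phase in leucine-free medium. The cells were sorted into four equal gates by GFP/Cherry ratio before plasmid amplification by PCR and Illumina sequencing.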

± gives the uncertainty stated by the source.

Consider QYMEELADDDEERFSEL [RPL5], for which the protein stability index runs as follows: (doa10∆) 1.12 ± 0.14; (pdr5∆) 1.14 ± 0.18.

LQKKVASILLALTQMDQ [RPB3]: the protein stability index runs as follows: (doa10∆) 2.88 ± 0.15; (pdr5∆) 2.9 ± 0.14; (san1∆) 2.16 ± 0.15; (ubr1∆) 2.62 ± 0.066.

For the sequence SASDALKGRVVEVCLAD [RPS1A], the protein stability index (doa10∆) was found to be 2.46 ± 0.06, the protein stability index (pdr5∆) turned out to be 2.82 ± 0.093, the protein stability index (san1∆) is 2.35 ± 0.081 and the protein stability index (ubr1∆) was determined as 2.43 ± 0.055.

GSKSASKQTPQPKAPRA [ISW2]: the protein stability index by setting is: (doa10∆) 3.08 ± 0.076; (pdr5∆) 3.17 ± 0.12; (san1∆) 2.76 ± 0.1; (ubr1∆) 3.23 ± 0.08.

KKISSFKSLIDEDLLDT [YGL172W/NUP49] showed a protein stability index (doa10∆) of 3.08 ± 0.097, a protein stability index (pdr5∆) of 3.21 ± 0.079, a protein stability index (san1∆) of 3.12 ± 0.062 and a protein stability index (ubr1∆) of 3.14 ± 0.063.

With SPFFVLDEVDAALDITN [SMC1], the protein stability index by setting is: (doa10∆) 2.39 ± 0.093; (pdr5∆) 2.78 ± 0.071; (san1∆) 2.63 ± 0.066; (ubr1∆) 2.69 ± 0.057.

For the sequence TSRKALEEVSLKWIDTA [RPL3], the protein stability index runs as follows: (doa10∆) 1.67 ± 0.098; (pdr5∆) 1.89 ± 0.094; (san1∆) 1.82 ± 0.12; (ubr1∆) 1.9 ± 0.088.

As to IPGGPKFEPLYPREEEE [PRP8], the protein stability index amounted to 3.01 ± 0.11 (doa10∆), 2.78 ± 0.15 (pdr5∆), 3.01 ± 0.11 (san1∆) and 2.91 ± 0.13 (ubr1∆).

With DPAHSLNYTVINFKSRE [AAR2], the protein stability index by setting is: (doa10∆) 3.07 ± 0.054; (pdr5∆) 3.1 ± 0.059; (san1∆) 3.14 ± 0.046; (ubr1∆) 3.22 ± 0.037.

Take DIGKGAETTFLQDVIAL [RPC53]: the protein stability index (doa10∆) worked out at 2.52 ± 0.073, the protein stability index (pdr5∆) was 2.31 ± 0.1, the protein stability index (san1∆) turned out to be 2.38 ± 0.11 and the protein stability index (ubr1∆) came to 2.71 ± 0.056.

FDVVLTTFEYIIKERAL [SNF2]: the protein stability index was found to be 2.12 ± 0.067 (doa10∆), 2.36 ± 0.071 (pdr5∆), 2.05 ± 0.088 (san1∆) and 2.14 ± 0.071 (ubr1∆).

Take DDSTKFQLVNDVMDELI [SIR3]: the protein stability index stood at 3.29 ± 0.15 (doa10∆), 3.37 ± 0.15 (pdr5∆), 3.47 ± 0.1 (san1∆) and 3.39 ± 0.086 (ubr1∆).

VDPVYKDVAKPTGPKTA [FAS2]: the protein stability index is, setting by setting: (doa10∆) 2.99 ± 0.096; (pdr5∆) 3.05 ± 0.1; (san1∆) 2.52 ± 0.08; (ubr1∆) 2.34 ± 0.069.

In the case of ENLNRNWRGREHWKVRN [BRN1], the protein stability index was 3.57 ± 0.11 (doa10∆), 3.33 ± 0.14 (pdr5∆), 3.37 ± 0.063 (san1∆) and 3.5 ± 0.08 (ubr1∆).

Regarding NQILQTEIENYLLENNQ [YDL116W/NUP84], the protein stability index (doa10∆) is 1.88 ± 0.052, the protein stability index (pdr5∆) was 2.24 ± 0.038, the protein stability index (san1∆) came out at 2.19 ± 0.066 and the protein stability index (ubr1∆) is 2.13 ± 0.043.

For MYNGKDRAQNSYQPMYQ [SSN3], the protein stability index runs as follows: (doa10∆) 3.31 ± 0.21; (pdr5∆) 2.48 ± 0.23; (ubr1∆) 3.2 ± 0.063.

The sequence KETVEIGIVDYEAGASH [FAS1] gave a protein stability index (pdr5∆) of 2.92 ± 0.19 and a protein stability index (ubr1∆) of 3.06 ± 0.14.

For the sequence KLELINRYAYVLSSLMF [LRP1], the protein stability index stood at 2.21 ± 0.05 (doa10∆), 2.31 ± 0.049 (pdr5∆), 1.94 ± 0.064 (san1∆) and 2.65 ± 0.046 (ubr1∆).

On to KEDSTIQDSNGDVKNME [SWI3], for which the protein stability index by setting is: (doa10∆) 3.09 ± 0.11; (pdr5∆) 3.38 ± 0.087; (san1∆) 2.71 ± 0.093; (ubr1∆) 3.17 ± 0.058.

NELQEERLKVPILVTLV [POP6]: the protein stability index turned out to be 1.67 ± 0.034 (doa10∆), 1.99 ± 0.036 (pdr5∆), 1.84 ± 0.053 (san1∆) and 1.7 ± 0.023 (ubr1∆).

On to MTTEDPDSNHLSSETGI [SRB4], for which the protein stability index reads like this: (doa10∆) 3.15 ± 0.12; (pdr5∆) 2.85 ± 0.2; (san1∆) 3.37 ± 0.076; (ubr1∆) 3.04 ± 0.081.

In turn, GKRQVLLRPSSKVIIKF [RPS22B] yielded a protein stability index (doa10∆) of 2.83 ± 0.1, a protein stability index (pdr5∆) of 2.21 ± 0.055, a protein stability index (san1∆) of 3.25 ± 0.057 and a protein stability index (ubr1∆) of 2.15 ± 0.049.

In the case of GAALKDIEIVRVNKNAP [FAS2], the protein stability index came out at 3.09 ± 0.092 (doa10∆), 3.24 ± 0.12 (pdr5∆), 3.21 ± 0.089 (san1∆) and 3.31 ± 0.084 (ubr1∆).

PGQKMSLFSHRKHTRGD [BRN1]: the protein stability index by setting is: (doa10∆) 3.34 ± 0.23; (pdr5∆) 2.95 ± 0.21; (san1∆) 3.31 ± 0.15; (ubr1∆) 3.22 ± 0.062.

Sequence ELLKSSLQKAGSKMEAK [AAR2] yielded a protein stability index (doa10∆) of 3.23 ± 0.077, a protein stability index (pdr5∆) of 3.35 ± 0.085, a protein stability index (san1∆) of 3.05 ± 0.079 and a protein stability index (ubr1∆) of 3.07 ± 0.079.

Consider ITLIDSASLHLNYGVYL [RET1], for which the protein stability index runs as follows: (doa10∆) 2.4 ± 0.076; (pdr5∆) 2.27 ± 0.081; (san1∆) 2.83 ± 0.097; (ubr1∆) 2.4 ± 0.063.

On to TRLKSLLKPFHVKVNDK [SIR3], for which the protein stability index is, setting by setting: (doa10∆) 2.65 ± 0.093; (pdr5∆) 2.96 ± 0.082; (san1∆) 2.79 ± 0.075; (ubr1∆) 2.81 ± 0.052.

For the sequence HSFEDAHTPMLQMYSKI [FAS1], the protein stability index runs as follows: (doa10∆) 2.75 ± 0.06; (pdr5∆) 3.03 ± 0.086; (san1∆) 2.82 ± 0.096; (ubr1∆) 2.84 ± 0.076.

For the sequence DELILPLPSHALTVQEV [YDL116W/NUP84], the protein stability index was found to be 2.4 ± 0.038 (doa10∆), 2.56 ± 0.036 (pdr5∆), 2.15 ± 0.057 (san1∆) and 2.44 ± 0.025 (ubr1∆).

With IKPKIALQDKEITSVLS [SNF12], the protein stability index is, setting by setting: (doa10∆) 2.31 ± 0.082; (pdr5∆) 2.39 ± 0.1; (san1∆) 2.36 ± 0.16; (ubr1∆) 2.28 ± 0.093.

Sequence QHQRIVAFVCSPISDSR [RPN10] showed a protein stability index (doa10∆) of 1.92 ± 0.097, a protein stability index (pdr5∆) of 3.12 ± 0.11, a protein stability index (san1∆) of 1.48 ± 0.15 and a protein stability index (ubr1∆) of 2.3 ± 0.16.

In turn, QGSMSERPPYILNSYGV [SIR2] showed a protein stability index (doa10∆) of 2.73 ± 0.072, a protein stability index (pdr5∆) of 3.03 ± 0.084, a protein stability index (san1∆) of 3 ± 0.066 and a protein stability index (ubr1∆) of 2.87 ± 0.045.

Take KTRGPFHFRAPSRIFYK [RPL16A]: the protein stability index runs as follows: (doa10∆) 2.99 ± 0.08; (pdr5∆) 2.6 ± 0.062; (san1∆) 2.56 ± 0.061; (ubr1∆) 2.77 ± 0.057.

As to QNENLPSDKSDSMVDKE [SSN2], the protein stability index was 3.07 ± 0.13 (doa10∆), 2.64 ± 0.096 (pdr5∆), 2.73 ± 0.091 (san1∆) and 2.57 ± 0.077 (ubr1∆).

Turning to DEGLLNMVSLRGRNDTL [GRR1], the protein stability index reads like this: (doa10∆) 2.55 ± 0.15; (pdr5∆) 2.49 ± 0.14; (san1∆) 2.51 ± 0.097; (ubr1∆) 2.83 ± 0.17.

PKYIDELKTRDATNTSY [SWP82]: the protein stability index turned out to be 2.68 ± 0.095 (doa10∆), 3.12 ± 0.072 (pdr5∆), 2.58 ± 0.079 (san1∆) and 2.94 ± 0.05 (ubr1∆).

(Values after the supplement of paper PMC9732359.)
